Drawing on US20110244457A1, this text covers Average MOTA (n = 6) and Average MOTA (n = 4) for one substance.

In assay [1] the target is human IL-8 (human) (UniProt P10145). In words: homogeneous immuno-SDA, 100 pM IL-8 in binding mixture, 1 nM Ab1-SA-P1 with 1 nM Ab2-P2 (G265-5-LHP-3) as second proximity member.
For assay [2] the target is unchanged. Kind of assay: homogeneous immuno-SDA with tether oligonucleotide, 100 pM IL-8 in binding mixture, 1 nM Ab1-SA-TO plus RHP-3 with 1 nM Ab2-P2 (G265-5-LHP-3).
Assay [3] has the same target. In words: homogeneous immuno-SDA with tether oligonucleotide, 10 pM IL-8 in binding mixture, 1 nM Ab1-SA-TO plus RHP-3 with 1 nM Ab2-P2 (G265-5-LHP-3).
Assay [4] shares this target. Kind of assay: homogeneous immuno-SDA, 10 pM IL-8 in binding mixture, 1 nM Ab1-SA-P1 with 1 nM Ab2-P2 (G265-5-LHP-3) as second proximity member; signal needs both antibodies on IL-8.
For assay [5] the target is unchanged. In words: homogeneous immuno-SDA with reversed probe RBD-3v3, 0.25 pM IL-8 in binding mixture, 20 pM Ab1-SA-P1 with 100 pM Ab2-P2 (G265-5-LHP-3), 50 nM blocker RDB-3z8.
Assay [6] shares this target. In words: homogeneous immuno-SDA with reversed probe RBD-3v3, 1.0 pM IL-8 in binding mixture, 20 pM Ab1-SA-P1 with 100 pM Ab2-P2 (G265-5-LHP-3), 50 nM blocker RDB-3z8.
Assay [7] has the same target. In words: homogeneous immuno-SDA, 1,000 pM IL-8 in binding mixture, 1 nM Ab1-SA-P1 with 1 nM Ab2-P2 (G265-5-LHP-3) as second proximity member.
Assay [8] shares this target. In words: homogeneous immuno-SDA with reversed probe RBD-3v3, 0.1 pM IL-8 in binding mixture, 20 pM Ab1-SA-P1 with 100 pM Ab2-P2 (G265-5-LHP-3), 50 nM blocker RDB-3z8.
The target is the same in assay [9]. In words: homogeneous immuno-SDA with reversed probe RBD-3v3, 0.5 pM IL-8 in binding mixture, 20 pM Ab1-SA-P1 with 100 pM Ab2-P2 (G265-5-LHP-3), 50 nM blocker RDB-3z8.

Sequence of human IL-8 (human) (P10145 28-99 limits assumed): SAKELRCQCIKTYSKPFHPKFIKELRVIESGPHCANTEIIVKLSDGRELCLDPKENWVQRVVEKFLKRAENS
Sequence of MAb G265-8 (BD Bioscience Pharmingen), directed against human IL-8, covalently coupled to streptavidin (anti-IL-8 IgG-SA conjugate) (P22629 37-163): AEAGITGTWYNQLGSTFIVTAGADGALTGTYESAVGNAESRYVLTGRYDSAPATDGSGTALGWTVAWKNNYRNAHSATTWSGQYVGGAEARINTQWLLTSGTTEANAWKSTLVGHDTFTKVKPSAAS

In the case of “MAb G265-8 (BD Bioscience Pharmingen), directed against human IL-8, covalently coupled to streptavidin (anti-IL-8 IgG-SA conjugate) (from UniProt P22629 37-163) (antibody)”, the Average MOTA (n = 6) stood at 73900 with human IL-8 (human) [1]; 32200 with human IL-8 (human) [2]; 505 in the assay with human IL-8 (human) [3]; 3980 with human IL-8 (human) [4]; 129000 with human IL-8 (human) [7]. Moreover, the Average MOTA (n = 4) is 81600 with human IL-8 (human) [5], 129000 with human IL-8 (human) [6], 23100 with human IL-8 (human) [8] and 118000 with human IL-8 (human) [9].
